Assay [1] addresses Spike Delta (SARS-CoV-2).
Assay [2] addresses T1, Spike Delta (SARS-CoV-2).
T1 construct: also called Delta spike; delta spike protein
Kind of assay: SPR, Delta spike as solid phase [panel C].

Where two headings read alike, the source gives them in different places.

B1: 1-Arm (designed binder)
LCB1 mini-binder coupled to a DNA handle that is hybridised to one arm of a 3-helix-bundle DNA nanostructure: DKEWILQKIYEIMRLLDELGHAEASMRVSDLIYEFMKKGDERLLEEAERLLEEVER
Regarding B1, in assay [1], the affinity, expressed as Kd, was 140 pM.

B2: 2-Arm (designed binder)
LCB1 mini-binder coupled to a DNA handle that is hybridised to an arm of a 3-helix-bundle DNA nanostructure: B1 LCB1 mini-binder coupled to a DNA handle that is hybridised to one arm of a 3-helix-bundle DNA nanostructure
As to B2, in assay [1], the Kd (in general, a measure of binding affinity in units of concentration) stood at 140 pM.

B3: Tri-pdbody (designed binder)
LCB1 mini-binder coupled to a DNA handle that is hybridised to an arm of a 3-helix-bundle DNA nanostructure: B1 LCB1 mini-binder coupled to a DNA handle that is hybridised to one arm of a 3-helix-bundle DNA nanostructure
notes: also called 3-Arm; 3arm
B3: the Kd worked out at 100 pM in assay [1] and 216 pM in assay [2].

These data come from US20250222126A1 (ARIZONA BOARD OF REGENTS ON BEHALF OF ARIZONA STATE …, published 2025).
